{"source": "ChEMBL document CHEMBL1221387", "about": "“Prenylflavonoids from Glycyrrhiza uralensis and their protein tyrosine phosphatase-1B inhibitory activities” (Bioorg Med Chem Lett, 2010)", "key": {"[1]": {"substrate": "COc1c(CC=C(C)C)c(O)cc(O)c1-c1oc2cc(O)ccc2c1C", "conditions": "Homo sapiens; 20 uM", "description": "Competitive inhibition of human recombinant PTP1B at 20 uM by Lineweaver-Burke plot analysis"}, "[2]": {"substrate": "COc1c(CC=C(C)C)c(O)cc(O)c1-c1oc2cc(O)ccc2c1C", "conditions": "Homo sapiens; 30 uM", "description": "Competitive inhibition of human recombinant PTP1B at 30 uM by Lineweaver-Burke plot analysis"}, "[3]": {"substrate": "COc1c(CC=C(C)C)c(O)cc(O)c1-c1oc2cc(O)ccc2c1C", "conditions": "Homo sapiens; 10 uM", "description": "Competitive inhibition of human recombinant PTP1B at 10 uM by Lineweaver-Burke plot analysis"}}}
{"protein": "Tyrosine-protein phosphatase non-receptor type 1 (Homo sapiens), P18031 (protein) MEMEKEFEQIDKSGSWAAIYQDIRHEASDFPCRVAKLPKNKNRNRYRDVSPFDHSRIKLHQEDNDYINASLIKMEEAQRSYILTQGPLPNTCGHFWEMVWEQKSRGVVMLNRVMEKGSLKCAQYWPQKEEKEMIFEDTNLKLTLISEDIKSYYTVRQLELENLTTQETREILHFHYTTWPDFGVPESPASFLNFLFKVRESGSLSPEHGPVVVHCSAGIGRSGTFCLADTCLLLMDKRKDPSSVDIKKVLLEMRKFRMGLIQTADQLRFSYLAVIEGAKFIMGDSSVQDQWKELSHEDLEPPPEHIPPPPRPPKRILEPHNGKCREFFPNHQWVKEETQEDKDCPIKEEKGSPLNAAPYGIESMSQDTEVRSRVVGGSLRGAQAASPAKGEPSLPEKDEDHALSYWKPFLVNMCVATVLTAGAYLCYRFLFNSNT", "values": [{"measurement": "Km", "setting": "[1]", "result": 4.2, "unit": "µM"}, {"measurement": "Km", "setting": "[2]", "result": 5.5, "unit": "µM"}, {"measurement": "Km", "setting": "[3]", "result": 3.5, "unit": "µM"}]}
